Data: patent US8343490B2, “Monoclonal antibody SC104 and derivative thereof specifically binding to a sialyltetraosyl carbohydrate as a potential anti-tumor therapeutic agent” (Cephalon Australia Pty Ltd, priority 2004, dated 2013)
Several values for one entry are separate records, joined by “and”; a condition that tells them apart may be missing. Equal entries are not always repeated.

Experiments:
[1] = test system: C170 cells; assay: C170 cell ELISA (hybridoma screening); type: binding
Protocol: ELISA. Antibody responses in the serum of immunised mice were assayed by titration using a standard non-competitive ELISA procedure. 96-well tissue culture plates were coated with C170 cells at a cell density of 5×10^5 cells/ml (100 μl/well) in 10% foetal bovine serum in RPMI 1640. The plates were incubated overnight at 37° C., 5% CO2, 95% air. The cells were then washed twice in phosphate buffered saline (pH7.3, PBS) prior to being fixed with 0.5% glutaraldehyde in PBS (10 min, 25° C., 100 μl/well). Remaining non-specific binding sites were blocked by incubation for 1 hr with 1% bovine serum albumin (fraction V from Sigma Chemicals Ltd.) in PBS. The cells were washed three times with a washing solution consisting of 0.05% Tween 20 in phosphate buffered saline before assaying post-boost serum for binding to C170 cells using a non-competitive sandwich ELISA. The pre-immunisation serum was used as a negative control. • Immunohistochemistry. Binding of hybridoma supernatants to tumour tissues was determined by indirect immunoperoxidase staining of frozen colorectal tumour sections. […] The bound antibody was detected with rabbit anti-mouse Ig conjugated to peroxidase (Dako Ltd., Bucks., UK) and following extensive washing the slides were stained with 0.05% diaminobenzidine and 0.01% H2O2 in 0.05M Tris-HCl, pH7.6 and counterstained with haematoxylin. […]

[2] = test system: freshly disaggregated colorectal tumour cells; assay: Primary tumour binding, flow cytometry
Protocol: • Primary tumour binding. Tumour specimens were obtained at the time of colorectal cancer resection. Specimens were finely minced and disaggregated with 0.05% collagenase (Type IV, Boehringer Mannheim, Lewes, UK) for 20 min at 37° C. The tumour cell suspension was removed and washed 3 times in Hanks balanced salt solution (Gibco BRL, Paisley, UK). Fresh collagenase was added to the remaining tissue and it was reincubated for a further 20 min. This procedure was repeated twice before combining cells from all dissociations and resuspending them in Dulbecco's medium containing 20% fetal calf serum (Gibco). Cells were incubated for 1 hr at 4° C. with SC104 mab (1 μg). […] Normal mouse immunoglobulin was used as a negative control and this fluorescence was subtracted from the fluorescence obtained with SC104. […] Results are expressed as mean linear fluorescence (MLF). […] The percentage of epithelial cells is measured by staining of cytokeratin mab Cam 5.2. was only 22±13% (range 10-60). However, following forward angle light scatter gating to selectively analyse cells in the malignant cell size range 79±4% (range 69-86) of the cells analysed were epithelial. […] The percentage of leukocytes as measured by staining with the anti-CD45 mab F-10-89 in the total nucleate population was 74±16 (range 40-90). […]

[3] = test system: colorectal tumour extranuclear membranes; assay: ELISA on extranuclear membranes of colorectal tumour; type: binding; conditions: one line per patient (1-7)
Protocol: • Tumour and normal membrane extract binding. Extranuclear extractions of colorectal and normal colonic membranes were produced and binding of SC104 was assayed by ELISA. Results

[4] = ELISA on tumour glycolipid extract; type: binding; conditions: FIG. 4
Protocol: • Binding to purified antigen preparations. […] Binding of SC104 mab was assayed by ELISA as described above.

[5] = Blood group antigen ELISA, Lewis y; type: binding
Protocol: (§1) The Lewis ^y hapten and the type I and type II H blood group antigen (Sigma, Poole, Dorset) were dried microtitre plates by overnight incubation at 37° C. Binding of SC104 mab was assayed by ELISA as described above.

[6] = Blood group antigen ELISA, H type I; type: binding
Protocol: as §1

[7] = test system: SC104 antigen purified from sputum; assay: Cross-reaction of antigen purified from sputum with antibodies; type: binding; conditions: FIG. 13
Excerpt: • SC104 antigen purification and characterisation. SC104 specific antigen was purified from sputum samples mixed in a 1:1 ratio with 0.1M pH 7.6 Tris 0.5% NP40. Briefly an immuno-affinity was produced cross linking SC104 S136A to Protein A Cl-6B sepharose using Dimethyl pimelimidate.2HCl as the covalent linker Results

[8] = test system: C170 tumour cells; assay: Annexin/PI dual colour flow cytometry; type: cell-based; conditions: concentration greater than 10 μg/ml; cells in suspension
Excerpt: Annexin/PI. Tumour cells ([…]) or appropriate controls for 4 hr at room temperature could then also be stained with FITC labelled annexin and propidium iodide (Sigma, Poole, Dorset) and then analysed by dual colour flow cytometry.

[9] = test system: pan caspase in C170 cells; assay: Pan caspase activation (FITC-FMK-vad, flow cytometry); type: cell-based; conditions: 30 μg/ml, up to 6 hrs; FIG. 17
Protocol: Pan caspase activation. 2×10^5 colorectal C170 cells were exposed to 30 μg/ml of SC104 for up to 6 hrs and pan caspase FITC-FMK-vad (caspACE FITC-vad-FMK, Promega, catalogue number G7462) employed to establish caspase activation. The cells were analysed by flow cytometry. Controls included a negative control murine antibody and a Fas antibody at 100 ng/ml.

[10] = test system: caspase 6 in C170 cells; assay: Caspase 6 activation (Western blot); type: cell-based; conditions: 6 hrs; SC104 at 10, more intensely at 100 μg/ml; FIG. 18
Protocol: Caspase 6 activation by SC104 mab. 2×10^5 colorectal C170 cells were exposed to 1-100 μg/ml of SC104 for 6 hrs and cell lysates generated. The lysates were subsequently run a 12% SDS-PAGE, Western blotted and probed with a caspase 6 specific antibody (Cleaved caspase 6 antibody, Cell Signalling Technology (NEB), catalogue number 9761). Cells exposed to SC101 were included as a negative control.

[11] = test system: C170 cells; assay: Inhibition of SC104 cell death by z-FMK-vad caspase inhibitor; type: cell-based; conditions: 3 μg/ml SC104 with 3 μM z-FMK-vad inhibitor, overnight; annexin V FITC/PI
Protocol: SC104 inhibition of cell death using the z-FMK-vad caspase inhibitor. 2×10^5 C170 cells were subjected to 3 μg/ml of SC104 and half were also incubated with 3 μM z-FMK-vad inhibitor (Promega, catalogue number G7232) and incubated overnight. The following day cell viability was assayed using annexin V FITC and propidium iodide.

B1: SC104: mouse IgG1 monoclonal antibody specific for a sialyltetraosyl carbohydrate, raised by immunisation with colorectal cancer cell lines (antibody, V domains shown)
VH: DVQLQESGPDLVKPSQSLSLTCTVTGYSITSGYSWHWVRQFPGNKMEWMGHIHFSGRPTYNPSLSSRISITRDTSKNQFLLQLKFVTTEDTSTYFCARKGKGSDDGLNYWGQGISVTVSS
VL: ENVLTQSPVIMSASPGEKVTMTCSASSSLSYIHWYQQKSRTSPKLWIYDTSNLASGVPGRFSGSGSGNSYSLTISSMEAEDVATYYCFQGSEYPLTFGGGTKLEMT
C170 ELISA (OD 405 nm) [1]: 0.301 OD 405 nm
freshly disaggregated colorectal tumour cells bound strongly ([2]; FIG. 3): > 80%
mean antigen density ([2]; freshly disaggregated colorectal tumour cells): 4×10^5 antigens per cell
Binding of SC104 mab to extranuclear membranes: Colorectal Tumour [3]: 0.221 and 0.278 and 0.196 and 0.281 and 0.102 and 0.001 and 0.437
binding to methanol/chloroform tumour glycolipid extract by ELISA [4]: A similar result was obtained
Binding to blood group antigens by ELISA: Lewis ^y [5]: 0.057 OD 405 nm
Binding to blood group antigens by ELISA: H blood group Type I [6]: 0.087 OD 405 nm
cross-reaction with antigen purified from sputum [7]: cross-react
cells staining with PI [8]: 75%
cells staining with annexin [8]: 30%
cells staining with both annexin and PI [8]: 65%
pan caspase activation [9]: activates pan caspases after 5 hrs
caspase 6 activation [10]: activation of caspase 6
increase in viable cells in the presence of the inhibitor [11]: 23%
